Assay results from US20160348147.

System: PSA peptide M(GVGVP)60GDGQSSIYSQTEEQQDDEEG

Prostate Specific Antigen (PSA), active
optical density of 100 µM PSA peptide before and after 2 h with 20 ng/mL active PSA at 37 C: a distinct difference in the presence of active PSA, with an increase in optical density of the solution above the transition temperature after incubation with enzyme
